Assay results from CN105542007A (UNIV NANCHANG, dated 2016).

Tests used:
[1] = target: T1, 前列腺特异性膜抗原 (PSMA) on LNCaP prostate cancer cells (UniProt Q04609 1-750, limits assumed); assay: cell ELISA on fixed LNCaP (PSMA+) against MKN45 (PSMA-) cells, HRP-anti-M13 detection, OD450
T1 construct: whole, on cells; Endogenous PSMA on fixed LNCaP cells; also called LNCaP细胞(表达PSMA)

[2] = target: T2, 重组表达的PSMA胞外区蛋白 (recombinant extracellular domain of prostate-specific membrane antigen, expressed in HEK-293) (UniProt Q04609 44-750, limits assumed); assay: indirect phage-ELISA, PSMA extracellular domain coated at 5 μg/mL, HRP-anti-M13 detection
T2 construct: extracellular domain; Cloned into pRAG2a via NotI/BamHI, secreted from HEK-293 cells and purified with HisTrap; also called 前列腺特异性膜抗原膜外区; PSMA蛋白; not shown: His tag (purified with HisTrap, detected with anti-His antibody)
T2 sequence (Q04609 44-750 limits assumed): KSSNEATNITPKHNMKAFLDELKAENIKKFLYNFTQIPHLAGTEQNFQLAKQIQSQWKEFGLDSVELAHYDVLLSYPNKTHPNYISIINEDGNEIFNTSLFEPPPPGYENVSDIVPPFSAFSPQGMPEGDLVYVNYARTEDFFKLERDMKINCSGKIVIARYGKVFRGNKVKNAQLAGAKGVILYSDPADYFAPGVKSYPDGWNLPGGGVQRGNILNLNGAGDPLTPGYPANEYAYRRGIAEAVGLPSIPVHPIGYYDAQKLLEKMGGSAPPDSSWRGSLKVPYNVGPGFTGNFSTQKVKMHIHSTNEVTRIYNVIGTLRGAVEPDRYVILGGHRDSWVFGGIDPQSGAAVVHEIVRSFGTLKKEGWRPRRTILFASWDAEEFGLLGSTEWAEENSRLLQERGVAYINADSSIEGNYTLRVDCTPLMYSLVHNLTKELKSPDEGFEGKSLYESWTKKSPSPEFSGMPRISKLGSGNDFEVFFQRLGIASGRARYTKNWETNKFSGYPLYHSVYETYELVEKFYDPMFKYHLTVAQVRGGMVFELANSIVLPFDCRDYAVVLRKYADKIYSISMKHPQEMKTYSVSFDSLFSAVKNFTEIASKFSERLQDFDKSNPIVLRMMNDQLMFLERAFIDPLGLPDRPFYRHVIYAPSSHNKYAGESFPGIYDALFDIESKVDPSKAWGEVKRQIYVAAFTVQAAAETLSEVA

T1 sequence (Q04609 whole entry): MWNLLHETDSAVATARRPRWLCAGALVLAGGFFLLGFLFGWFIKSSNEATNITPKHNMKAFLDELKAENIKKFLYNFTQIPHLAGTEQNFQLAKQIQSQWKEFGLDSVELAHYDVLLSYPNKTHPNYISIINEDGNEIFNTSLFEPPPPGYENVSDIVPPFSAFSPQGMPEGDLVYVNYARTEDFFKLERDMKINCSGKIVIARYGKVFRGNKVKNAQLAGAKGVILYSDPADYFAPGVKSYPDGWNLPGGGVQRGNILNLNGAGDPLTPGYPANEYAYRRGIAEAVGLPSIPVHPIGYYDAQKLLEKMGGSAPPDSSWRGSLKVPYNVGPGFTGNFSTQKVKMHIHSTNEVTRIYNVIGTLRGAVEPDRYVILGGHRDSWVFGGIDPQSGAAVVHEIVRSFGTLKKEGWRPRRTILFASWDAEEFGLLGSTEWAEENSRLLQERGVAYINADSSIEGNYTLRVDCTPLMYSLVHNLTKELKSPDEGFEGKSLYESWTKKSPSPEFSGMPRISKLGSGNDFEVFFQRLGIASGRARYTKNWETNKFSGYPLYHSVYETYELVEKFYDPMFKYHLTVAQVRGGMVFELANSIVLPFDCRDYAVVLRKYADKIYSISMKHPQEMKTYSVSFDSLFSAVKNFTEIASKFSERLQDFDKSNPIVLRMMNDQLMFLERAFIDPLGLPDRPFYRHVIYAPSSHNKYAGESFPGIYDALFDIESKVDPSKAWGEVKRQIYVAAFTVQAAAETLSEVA

B1: 抗前列腺特异性膜抗原单域重链抗体噬菌体阳性克隆 (phage clone displaying the anti-PSMA single-domain heavy-chain antibody of SEQ ID NO: 1) (VHH)
VHH: QLQLVESGGGLVQAGGSLRLSCAASGRTFSRYAVGWFRQAPGKEREFVSGLSWTGSSTLYADSVKGRFTFSRDNAKKMVYLQMNTLMPEDTAVYYCAARKTRGKSYEYWGQGTQVTVSS
notes: VHH selected from a naive camelid phage display library; It was tested as a phage particle and detected with anti-M13 antibody, not as a purified protein; also called 针对前列腺特异性膜抗原的单域重链抗体阳性克隆; 展示本发明所述纳米抗体的噬菌体克隆; not shown: the phage coat protein fusion and any linker or tag are not described
B1: binds [1]; binds [2].
